Measured values as given in paper PMC2973826, “Translation Elongation Factor 1A Facilitates the Assembly of the Tombusvirus Replicase and Stimulates Minus-Strand Synthesis” (PLoS Pathogens, 2010).

Molecular target: T1, MBP-tagged TCV p88C (lacking the p28-overlapping domain from the N-terminus) (Turnip crinkle virus, UniProt P17460 252-775)
T1 sequence: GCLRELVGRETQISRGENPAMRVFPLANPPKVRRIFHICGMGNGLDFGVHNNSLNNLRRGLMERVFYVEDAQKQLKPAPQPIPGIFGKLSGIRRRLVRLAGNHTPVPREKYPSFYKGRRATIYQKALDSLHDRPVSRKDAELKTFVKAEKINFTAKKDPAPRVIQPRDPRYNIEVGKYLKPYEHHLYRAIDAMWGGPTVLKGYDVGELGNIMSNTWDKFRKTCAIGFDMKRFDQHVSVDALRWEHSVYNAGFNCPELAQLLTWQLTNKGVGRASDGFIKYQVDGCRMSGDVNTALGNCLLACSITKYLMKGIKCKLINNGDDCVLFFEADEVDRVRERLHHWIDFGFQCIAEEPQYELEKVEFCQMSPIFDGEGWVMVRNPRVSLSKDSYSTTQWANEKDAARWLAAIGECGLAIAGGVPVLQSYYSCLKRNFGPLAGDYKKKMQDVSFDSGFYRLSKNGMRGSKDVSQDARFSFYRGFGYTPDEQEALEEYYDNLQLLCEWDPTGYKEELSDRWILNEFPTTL
Experiment: cell-based or functional assay

B1: eukaryotic translation elongation factor 1A (eEF1A), wild type (natural protein, S. cerevisiae, UniProt P02994 1-458, looked up)
chain: MGKEKSHINVVVIGHVDSGKSTTTGHLIYKCGGIDKRTIEKFEKEAAELGKGSFKYAWVLDKLKAERERGITIDIALWKFETPKYQVTVIDAPGHRDFIKNMITGTSQADCAILIIAGGVGEFEAGISKDGQTREHALLAFTLGVRQLIVAVNKMDSVKWDESRFQEIVKETSNFIKKVGYNPKTVPFVPISGWNGDNMIEATTNAPWYKGWEKETKAGVVKGKTLLEAIDAIEQPSRPTDKPLRLPLQDVYKIGGIGTVPVGRVETGVIKPGMVVTFAPAGVTTEVKSVEMHHEQLEQGVPGDNVGFNVKNVSVKEIRRGNVCGDAKNDPPKGCASFNATVIVLNHPGQISAGYSPVLDCHTAHIACRFDELLEKNDRRSGKKLEDHPKFLKSGDAALVKFVPSKPMCVEAFSEYPPLGRFAVRDMRQTVAVGVIKSVDKTEKAAKVTKAAQKAAKK
in vitro (−)RNA synthesis by the TCV RdRp on a TBSV (+)RNA template after pre-incubation of purified wt eEF1A with the TCV RdRp: ~5 fold
